The Human Domainome abundance scans (Beltran et al. 2025)
± gives the uncertainty stated by the source.

B1: Receptor-interacting serine/threonine-protein kinase 2, residues 438 to 518; numbered along this chain, O43353 (parent)
chain: QWIQSKREDIVNQMTEACLNQSLDALLSRDLIMKEDYELVSTKPTRTSKVRQLLDTTDIQGEEFAKVIVQKLKDNKQMGLQ

Variants of: B1
Experiment: abundance fitness (aPCA) (normalised: wild type 0, dead -1); higher = more abundant; growth selection in yeast, the domain comes from the species named
Conditions: Homo sapiens

| Variant | abundance fitness |
| --- | --- |
| QWIQSKREDIVNQMTEACLNQSLDALLSRDLIMKEDYELVSTKPTRTSKVRQLLDTTDIQGEECAKVIVQKLKDNKQMGLQ [F64C] | 0.112 ± 0.13 |
| QWIQSKREDIVNQMTEACLNISLDALLSRDLIMKEDYELVSTKPTRTSKVRQLLDTTDIQGEEFAKVIVQKLKDNKQMGLQ [Q21I] | -0.788 ± 0.1 |
| QWIQSKREDIVNQMTEACLNQSLDALLSRDLIMKEDYELVSTKPTRTSKVRQLLDTTDIQGEEFAKVIVQKLKINKQMGLQ [D74I] | -0.261 ± 0.069 |
| QWIQSKREDIVNQMTEACLNQSLDALLSRDLIMKEDYELVSTKPTRTSKVRQLLDTTDITGEEFAKVIVQKLKDNKQMGLQ [Q60T] | -0.412 ± 0.08 |
| QWIQSKREDIVNQMTEACLNQSLDALLSRDLIMKEDYELVSTKPTRTSKVRQLLDTTDINGEEFAKVIVQKLKDNKQMGLQ [Q60N] | -0.353 ± 0.1 |
| QWIQSKREDIVNQMTEACLNQSLDALLSRDLIMKEDYELVSTKPTRTSKVRQLLDTTDICGEEFAKVIVQKLKDNKQMGLQ [Q60C] | -0.054 ± 0.065 |
| QWIQSKREDIVNQMTEACLNQSLDAPLSRDLIMKEDYELVSTKPTRTSKVRQLLDTTDIQGEEFAKVIVQKLKDNKQMGLQ [L26P] | -0.374 ± 0.068 |
| QWIQSKREDIVNQMTEACLNQSLDALLSRDLTMKEDYELVSTKPTRTSKVRQLLDTTDIQGEEFAKVIVQKLKDNKQMGLQ [I32T] | -0.594 ± 0.12 |
| QWIQSKREDIVNQMTEACLNQSLDALLSRDLQMKEDYELVSTKPTRTSKVRQLLDTTDIQGEEFAKVIVQKLKDNKQMGLQ [I32Q] | -0.273 ± 0.14 |
| QWIRSKREDIVNQMTEACLNQSLDALLSRDLIMKEDYELVSTKPTRTSKVRQLLDTTDIQGEEFAKVIVQKLKDNKQMGLQ [Q4R] | -0.045 ± 0.1 |
| QWIQSKRLDIVNQMTEACLNQSLDALLSRDLIMKEDYELVSTKPTRTSKVRQLLDTTDIQGEEFAKVIVQKLKDNKQMGLQ [E8L] | -0.507 ± 0.079 |
| QWIQSKRKDIVNQMTEACLNQSLDALLSRDLIMKEDYELVSTKPTRTSKVRQLLDTTDIQGEEFAKVIVQKLKDNKQMGLQ [E8K] | -0.319 ± 0.23 |
| QWIQSKREDIVEQMTEACLNQSLDALLSRDLIMKEDYELVSTKPTRTSKVRQLLDTTDIQGEEFAKVIVQKLKDNKQMGLQ [N12E] | 0.199 ± 0.21 |
| QWIQSKREDIVQQMTEACLNQSLDALLSRDLIMKEDYELVSTKPTRTSKVRQLLDTTDIQGEEFAKVIVQKLKDNKQMGLQ [N12Q] | -0.248 ± 0.23 |
| QWIQSKREDIVNSMTEACLNQSLDALLSRDLIMKEDYELVSTKPTRTSKVRQLLDTTDIQGEEFAKVIVQKLKDNKQMGLQ [Q13S] | 0.072 ± 0.16 |
| QWIQSKREDIVNQMTEACLNQSLDALLSRDLIMKEDYELVSTKYTRTSKVRQLLDTTDIQGEEFAKVIVQKLKDNKQMGLQ [P44Y] | -0.2 ± 0.26 |
| QWIQSKREDIVNQMTEACLNQSLDALLSRDLIMKEDYELVSIKPTRTSKVRQLLDTTDIQGEEFAKVIVQKLKDNKQMGLQ [T42I] | -0.225 ± 0.16 |

| Variant | abundance fitness |
| --- | --- |
| QWIQSKREDIVNQMTEACLNQSLDALLSRDLIMKEDYELVSPKPTRTSKVRQLLDTTDIQGEEFAKVIVQKLKDNKQMGLQ [T42P] | -0.89 ± 0.16 |
| QWIQSKREDIVNQMTEACLNQSLDALLSRDLIMKEDYELVSTKPTRTSKVRQLLDTTDIQGEEFAKVTVQKLKDNKQMGLQ [I68T] | -0.345 ± 0.095 |
| QWIQSKREDIVNQMTEACLNQSLDALLSRDLIMKEDYELVSTKPTRTSKVRQLLDTTDIQGEEFAKVLVQKLKDNKQMGLQ [I68L] | -0.413 ± 0.077 |
| QWIQSKREFIVNQMTEACLNQSLDALLSRDLIMKEDYELVSTKPTRTSKVRQLLDTTDIQGEEFAKVIVQKLKDNKQMGLQ [D9F] | -0.498 ± 0.28 |
| QWIQSKREDIVNQMTEACLNQSLDALLSRDLIMKEDYELVSTKPTRTSKVRQELDTTDIQGEEFAKVIVQKLKDNKQMGLQ [L53E] | -0.536 ± 0.14 |
| QWIQSKREDIVNQMTEACLNQSLDALLSRDLIMKEDYELVSTKPTRTSKVRQLLDTLDIQGEEFAKVIVQKLKDNKQMGLQ [T57L] | -0.002 ± 0.049 |
| QWIQSKREDIVNQMTEACLNQSLDALLSRDLIMKEDMELVSTKPTRTSKVRQLLDTTDIQGEEFAKVIVQKLKDNKQMGLQ [Y37M] | -0.788 ± 0.2 |
| QWIQSKREDIVNQMTEACLNQSLDALLSRDLIMKEAYELVSTKPTRTSKVRQLLDTTDIQGEEFAKVIVQKLKDNKQMGLQ [D36A] | -0.267 ± 0.11 |
| QWIQSKREDIVNQMTEACLNQSLDALLSRDLIMKEYYELVSTKPTRTSKVRQLLDTTDIQGEEFAKVIVQKLKDNKQMGLQ [D36Y] | -0.608 ± 0.28 |
| QWIQSKREDNVNQMTEACLNQSLDALLSRDLIMKEDYELVSTKPTRTSKVRQLLDTTDIQGEEFAKVIVQKLKDNKQMGLQ [I10N] | -0.476 ± 0.12 |
| QWIQSKREDYVNQMTEACLNQSLDALLSRDLIMKEDYELVSTKPTRTSKVRQLLDTTDIQGEEFAKVIVQKLKDNKQMGLQ [I10Y] | -0.864 ± 0.28 |
| QWIQSKREDIVNQMTEACLNQSLDALLDRDLIMKEDYELVSTKPTRTSKVRQLLDTTDIQGEEFAKVIVQKLKDNKQMGLQ [S28D] | -0.36 ± 0.16 |
| QWIQSKREDIVNQMTEACLNQSLDALLKRDLIMKEDYELVSTKPTRTSKVRQLLDTTDIQGEEFAKVIVQKLKDNKQMGLQ [S28K] | 0.095 ± 0.093 |
| QWIQSKREDIVNQMTEACLNQSLDALLSRQLIMKEDYELVSTKPTRTSKVRQLLDTTDIQGEEFAKVIVQKLKDNKQMGLQ [D30Q] | -0.073 ± 0.077 |
| QWIQSKREDIVNQMTEACLNQSLDALLSRRLIMKEDYELVSTKPTRTSKVRQLLDTTDIQGEEFAKVIVQKLKDNKQMGLQ [D30R] | -0.036 ± 0.049 |
| QWIQRKREDIVNQMTEACLNQSLDALLSRDLIMKEDYELVSTKPTRTSKVRQLLDTTDIQGEEFAKVIVQKLKDNKQMGLQ [S5R] | -0.125 ± 0.16 |
| QWIQDKREDIVNQMTEACLNQSLDALLSRDLIMKEDYELVSTKPTRTSKVRQLLDTTDIQGEEFAKVIVQKLKDNKQMGLQ [S5D] | 0.224 ± 0.27 |
